40 sequences from the nanobody polyreactivity screen of Harvey et al. (2022) can be followed below.

The nature of the series: yeast display, Sf9 membrane polyspecificity reagent, FACS + sequencing; frameworks hold sequencing errors. In outline:
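Nanobodies came from a synthetic yeast display library in Saccharomyces cerevisiae BJ5465, induced with galactose for 36–48 hours and stained for 1 hour at 4 °C with 10% biotinylated, detergent-solubilized Sf9 membrane reagent. Cells were enriched on streptavidin microbeads and then FACS-sorted, with low and high (top ~1%) gates set on anti-HA fluorescence for expression and streptavidin fluorescence for reagent binding. Each polyreactivity label reflects the gate a clone came from. Genes were amplified by colony PCR, sequenced by MiSeq 2 × 250 and filtered by CDR length.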
For “QVQLVESGGGLVQAGGSLRLSSAASGFIFIINAMGWYRQAPGKEREFVAAITGSGGSTYYADSVKGRFTISRDNAKNTVYLQMNSLKPEDTAVYYCANVGPYYSGKVYGRTYYSRYGYWGQGTQVTVSS”, the “polyreactivity (PSR sort gate)” value is listed as “low polyreactivity”.
Turning to “QVQLVESGGGLVQAGGSLRLSCAASGYTFTGNAMGWYRQAPGKERELVARITSVGRTYYADSVKGRFTISRDNAKNTVYLQMNSLKPEDTAVYYCAAQPYRYRYWPRVGGYDYWGQGTQVTVTS”, the “polyreactivity (PSR sort gate)” value is given as “high polyreactivity”.
In the case of “QVQLVESGGGIVHAGCSLRLSSTASRFIFWWYAMAGYRQAHGKERELVATITASVGSTNYADSVKGRFTISRDNAKNTVYLQMNSLNPEDTAVYYCATDIIGAIRDWDHTRMDYWGQGTQVTVSS” it was “low polyreactivity”.
In the case of “QVQLVESGGGLVQAGGSLRLSCAASGFIFGGYAMGWYRQAPGKEREFVAAIRQRGGSTYYADSVKGRFTISRDNAKNTVYLQMNSLKPEDTAVYYCAATVRAVQASVRYGYWGQGTQVTVSS” it was “high polyreactivity”; in that of “QVQLVESGGGLDQAGGSLRLRCAPSGRIFSYVMGWYRQAPGKERELVAAISGGVRTYYADSVKGRFTISRDNAKNTVYLQMNSLKPEDTAVYYCNADWYRKRNYWGQGTQVTVSS”, “high polyreactivity”.
On to “QVQLVESGGGLVQAGGSLRLSCAASGRIFVLYAMGWYRQAPGKERELVAAITSDGSSTYYADSVKGRFTISRDNAKNTVYLQMISLKPEDNAVYYCNKVQGWARYRSGKDMGYWGQGTQVTVSS”, for which the “polyreactivity (PSR sort gate)” value is given as “low polyreactivity”.
In the case of “QVQLVESGGGLVQSGGSLRLSCAASGRTFYRYAMGWYRQAPGKERELVAAISYSTTRTYYADSVKGRFTISRDIAKNTVYLQMNSLKPEETAVYYCAAYGWSRFGYDYWGQGSQVTVSS”, the “polyreactivity (PSR sort gate)” value is on record as “high polyreactivity”.
Consider “QVQLVESGGGLVQAGGSLRLSCAASGRTFVRNAMGWYRQAPGKERELVAAISKSGGITYYADSVKGRFTISRDTAKNTVYLQMNSLKPEDTAVYYCAKRTSYYRSGWSHYGYWGQGTQVTVSS”, for which the “polyreactivity (PSR sort gate)” value is on record as “high polyreactivity”.
As to “QVQLVESGGGLVQAGGSLRLSCAASGSIFYRNAMGWYRQAPGKERELVATITVNGGRTYYADSVKGRFTISRDNANNTVYLQMNSLKPEDTAVYDCAKDVHRWDPYDYWGQGTQVTVSS”, the “polyreactivity (PSR sort gate)” value is “low polyreactivity”.
On to “QVQLVESGGGLVQAGGSLRLSCAASGRTFHSNDMGWYRQAPGKERELVAAISSSDGITYYADSVKGRFTISRDNAKNTVYLQMNSLKQEDNAVYYCAARRYRSGYYSFYFWGQGTQVTVSS”, for which the “polyreactivity (PSR sort gate)” value is given as “high polyreactivity”.
As for “QVQLVESGGGLVQAGGSLRLSCAASGFTFYSYAMGWYRQEPGKEREFVAAITSRGGSTYYADSVKGRFTISRDNAKNTVYLQMNSLKPEDNAVYYCAAYAGYSDQARYYYWGQGTQVTVSS”, the “polyreactivity (PSR sort gate)” value is on record as “high polyreactivity”.
For “QVQLVESGRGLVQAGGSLRLSCAASGITFYTYAMGWYRQEPGKARELVATISSGGSTDYADSVKGRFTISRDNAKITVYLQMNSLKPEDTAVYYCADQYSYRIYYLYDYWGQGTQVTVSS”, the “polyreactivity (PSR sort gate)” value is recorded as “low polyreactivity”.
The result for “QVQLVESGGGLVQAGGSLRLSCAASGFTYRTNAMGWYRQAPGKERELVAAISTGARTYYADSVKGRFTISRDNAKNTVYLQMNSLKPEDTAVYYCNKVLRRFLSRYDYWGQGTQVTVSS” reads “high polyreactivity”; that for “QVQLVESGGGLVQAGGSLRLSCAASGRIFTIYAMGWYRQAPAKARELVAAISDRGTRTYYADSVKGRFTISRDNAKNTVFLKMNSLKPEDTAVYYCASDALYTYGYDYWGKGTQVTVSS”, “low polyreactivity”.
The result for “QVQLVESGGGLVQAGGSLRLSCAASGFIFSYYAMGWYRQAPGKERELVAAISSGGSTYYADSVKGRFTISRDNAKNSVYLQMNSLKPEDTAVYYCAAAIWYIILYFVRRTEHGYWGQGTQVTVSS” reads “low polyreactivity”; that for “QVQLVESGGGLVQAGGSLRLSCAASGRTFVNYTMGWYRQAPGKEWELVAAIRYRDGSTYYADSVKGRFTISRDYAKNTVYLQMNSLKPEDTAVYYCNTRITQVGDYIYDYWGQGTQVTVSS”, “low polyreactivity”; that for “QVQLVESGGGLVQAGGSLRLSCAASGFTFVSYAMGWYRQATGKERELVAVIDNSDGDTYYADSVKGRFTISRDNAKNTVYLQMNSLKPEDTAVYYCAADAVIEWTDWYSAWWYYYWGQGTQVTVSS”, “low polyreactivity”.
For “QLQLVESGGGLVQAGGSLRLSCGASGFTFYVYAMGWSRQAPGKERELVAAISKSGGSTYYADSVKGRFTISRDHATNTVDLQMTSLKPEDTAVYSCAVFDNRSGYRGGHRYNSWGQATQVTVSS”, the “polyreactivity (PSR sort gate)” value is “high polyreactivity”.
For “QVQLVESGGGLVQAGGSLRLSCAASGSIFLIYAMGWYRQAPGKERELVAAITGGGTTNYADSVKGRFTISRDNAKNTVYLQMNSLKPEDTAVYYCNAVPRSWSPYRHWFDYWGQGTQVTVSS”, the “polyreactivity (PSR sort gate)” value is “low polyreactivity”.
As for “QVQLVESGGGLVQAGGSLRLSCAASGFPFSRYARGWSRQAPGTERELVATITARGGTTYYADSVKGRFTISRDNAKNTVYLQMNSLKPEDTAVYYCNAKAYYRPYYDYDYGGQGTQVTVSS”, the “polyreactivity (PSR sort gate)” value is reported as “high polyreactivity”.
On to “QVQLVESAGGLVQAGVSLRLSCAASGRTFVGNAMGGYRQAPGKERELVADITWSGDITYYADSVKGRFTIARDTAKNTVYLQMISLKPEDTAVYYCAADYHRRLTDYDYWGQGTQVTVSS”, for which the “polyreactivity (PSR sort gate)” value was “low polyreactivity”.
As for “QVQLVESGGGLVQAGGSLRLSCAASGSIFKAYAMGWYRQAPGKERELVAAITWSAGSTYYADSVKGRFTISRDNAKNTVYLQMNSLKPEDTAVYYCAAEVRGSYYLTGYDYWGQGTQVTVSS”, the “polyreactivity (PSR sort gate)” value is listed as “high polyreactivity”.
Regarding “QVQLVESGGGLVQAGGSLRLSCAASGRIFGRNAMGWYRQAPGKERELVAAITYSGGRTYYADSVKGRFTISRDNAKNTVYLQMNSLKPEDTAVYYCAAYSFAYRYNYWGQGTQVTVSS”, the “polyreactivity (PSR sort gate)” value is listed as “high polyreactivity”.
The result for “QVQLVESGGGLVQAGGSLRLSCAASGSIFSYYAMGWYRQAPGKERELVAAISKRGASTYYADSVKGRFTISRDIAKNTVYLQMNSLKPEDTAVYYCAGYRQGSAYDYWGQGTQVTVSS” reads “high polyreactivity”.
In the case of “QVQLVESGGGLVQAGGSLRLSCAASGLILGVYSMGWYRQAPGKEREFVASINYGGGSTYYADSGKGRFTISRDNAKNTVYLQMNSLKPEDTAVYYCNARSRWGGTRLYSYDYWGQGTQVTVSS” it was “low polyreactivity”; in that of “QVQRVESGGGLVQAGGSLRLSCDASGFTFVPYAMGWYRQAPGKERELVAAISWRRGSTYYADSVKGRFTISRDNAKNTVYLQMNSLKPEDTAVYYCARKGYHYSETSAIFALYDYWGQGTQVTVSS”, “high polyreactivity”; in that of “QVQLVESGGCLVQAGGSLRLSCAASGSIFQPYAMGWYRQEPGKEREIVAAISQSGTSTYYADSVNGRFTISRDNAKNTVYLQMNSLKPEVTAVYYCAAQCWHLDSQWQLYNYFYWGQGTQVTVSS”, “high polyreactivity”.
The result for “QVQLVESGGGLVQAGGSLRLSCAASGSIFDNAMGWYRQAPGKERELVADITNNGGSTYYADSVKGRFTISRDNAKNTVYLQMNSLKPEDTAVYYCAKRRNYWFSFDYWGQGTQVTVSS” reads “low polyreactivity”; that for “QVQLVESGGGLVQAGCSLRLSCAASGLIFPGYDMGWYRQAPGKERELVADISDSGANTYYADSVKGRFTISRDNAKNTVYLQMNSLKPEDTAVYYCAADSSWWYGTSFGRFDYWGQGTQVTVSS”, “low polyreactivity”.
Regarding “QVQLVESGGGLVQAGGSLRLSCAASGFTFPHYAMGWYRQAPGKERELVARIRWGGGSTYYADSVKGRFTISRDNAKNTVYLQMNSLKPEDTAVYYCARTTSYLTSTRRYYYWGQGTQVTVSS”, the “polyreactivity (PSR sort gate)” value is “high polyreactivity”.
With “QVQLVESGGVLVQAGGSLRLSCAASGSIFGIYTMGWYIHATGKERELVAAISWSGGSTYYADSVKGRFTISRDNAKNTVFLQMNSLKPEDTAVYYCAAVPWASDGYDSWGQGTQVTVSS”, the “polyreactivity (PSR sort gate)” value was “low polyreactivity”.
For the sequence “QVQLVESGGGLVQAGGSHRLSCAASGIIFGRYAMGSYIQAPGKERELVAAITSGGSTSYSDSVKGRFTISRDNAKNTVYLQMNSLKPEDTAVYYCAARGWYVRHPQNYGYWGQGTQVTVSS”, the “polyreactivity (PSR sort gate)” value is “high polyreactivity”.
For the sequence “QVQLVESGGGLVQAGGSLRLSCAASGRTFGTNAMGWYRQAPGKERELVASIDLSADSTYYADSVKGRFTISRDNAKNNFYLQMNSLKPEDTAVYYCNKDGYPWPPNLDYWGQGTQVTVSS”, the “polyreactivity (PSR sort gate)” value is recorded as “low polyreactivity”.
“QVQLVESGGGLVQAGGSLRLSCAASGSTFRKYAMGWYRQAPGKERELVAAISRGGDSTYYADSVKGRFTISRENAKNTVYLQMNSLKPEDTAVYYCAADTRPGYSGFEYRGQGTQVTVSS”: the “polyreactivity (PSR sort gate)” value was “high polyreactivity”.
In the case of “QVQLQESDGGLVQAGGSLRLICAASGSISPQYYMGWYRQAPGKEREFVAISKGTTTYYADSVKGRLTISRVNAKNTVYLQMNSLKPEDTAVYCCAAGRWLQKVHAYWDQGTQVTVSS” it was “low polyreactivity”; in that of “QVQLVESGGGLVQAGGSLRLSCAASGRTFTSYAMGWYRQAPGKESELVAAIRRSGGSTYADSVKGRFTISRDNAKNTVYLQMNSLKPEDTAVYYCAAGHYWFTKGYHTLYDMDYWGQGTQVTVSS”, “high polyreactivity”; in that of “QVQLVESGGGLVQAGGSLRLSCAASGRTFVPYAMGWYRQAPGKERELVASITWRGGRTYYADSVKGRFTISRDNAKNTVYLQMNSLKPEDTAVYYCAAVGGYASYFHLYYYWGQGTQVTVSS”, “high polyreactivity”.
Consider “QVQLVESGGGLVQAGGSHRLSCAASGRIFRGYPMGWYRPAPGKERELGAAITSRGGSTYADSVKGRFTISRDNAKNTVYLQMNSLKPEDSAVYYCNAGYRAYSAKLVFRGYPRYDYWGQGTQVTVSS”, for which the “polyreactivity (PSR sort gate)” value was “low polyreactivity”.
Regarding “QVQLVESGGGLVQAGGSLRLSCAASGRTFYRYAMGSYRQAPGKEREFVAVISTDGSSTYYADSVKGRFTISRDNAKNTVYLQMNSLKPEDTAVYYCNKYVYGHKYGYRYSGVQDYYYWGQGTQVTVSS”, the “polyreactivity (PSR sort gate)” value was “high polyreactivity”.
Take “QVQLVESGGGLVQAGGSLRLSCAASGGTFRLYAMGWYRQAPGKDRELVAAITGVGSTNYADSVKGRFTISRDNAKNTVYLQMNSLKPEDTAVYYCAAYYWSQVLIQGYYSWGQGTQVTVSS”: the “polyreactivity (PSR sort gate)” value is given as “high polyreactivity”.
